We go through one molecule from US20250326813A1.

This assay concerns the target T1, human IL2Rβ Fc fusion protein (human) (UniProt P14784).
T1 sequence (looked up): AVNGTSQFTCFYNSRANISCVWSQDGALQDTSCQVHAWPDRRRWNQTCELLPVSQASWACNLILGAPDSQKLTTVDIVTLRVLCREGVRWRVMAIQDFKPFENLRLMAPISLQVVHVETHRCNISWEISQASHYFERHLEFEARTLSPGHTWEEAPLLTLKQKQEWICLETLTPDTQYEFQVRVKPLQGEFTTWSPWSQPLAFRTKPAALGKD
The assay can be described thus: ELISA, single concentration, anti-flag detection, E. coli-produced clone.

B1: EP569 (clone 2021EP22-E03), E. coli-produced (ligand)
chain: APASSSTKKTQLQLEHLLLDLQMILNGINNYKNPKLTRMLTFKFYMPKKATELKHLQCLEEELKPLEEVLNLAQSKNFHLRRKESINHMIVVFPVLKGSETTFMCEYADETATIVEFLNRWITFSQSIISTLT
B1 returned an OD450 nm of 0.871 OD450.
